Patent publication US20060003399

What was measured:
[1] = system: Full length human N-WASP, TAP-tagged at the C-terminus (Myc-N-WASP-TAP)
[2] = system: Full length human WASP, TAP-tagged at the C-terminus (Myc-WASP-TAP)

GST-tev-Rac1
actin polymerization at higher activator concentrations [1]: At higher concentrations, Nck1, Nck2 and Rac1 inhibited WASP- and N-WASP-stimulated actin polymerization
actin polymerization at higher activator concentrations [2]: At higher concentrations, Nck1, Nck2 and Rac1 inhibited WASP- and N-WASP-stimulated actin polymerization
